# Data taken from patent US10870710B2, “Synthetic oligosaccharide subunits of the Psl exopolysaccharide of pseudomonas aeruginosa and uses thereof” (Medlmmune Limited, priority 2013, dated 2020).
# Key:
# Psl = assay: mAb reactivity with Psl after mild alkaline treatment during carbohydrate purification; assay type: binding, P. aeruginosa; conditions: data not shown
# From the text: This observation raises the possibility that the class I mAb binds to a conformational epitope or a yet to be elucidated sub-stoichiometric Psl isoform. The potential for the latter is supported by the observation that mild alkaline, but not exhaustive protease treatment, during carbohydrate purification abolishes Cam-003 reactivity while maintaining WapR-001 and WapR-016 reactivity (data not shown).
# [1] = target: Pseudomonas aeruginosa Psl exopolysaccharide; conditions: anti-Psl mAb binding; cited from earlier work
# [2] = system: attachment of Pseudomonas aeruginosa to epithelial cells; conditions: mAb concentration giving max. inhibition of cell attachment; cited from earlier work
# P. aeruginosa = conditions: cited from earlier work
molecule,measurement,setting,value
"WapR-001: anti-Psl monoclonal antibody, class II epitope; VH SEQ ID NO: 5, VL SEQ ID NO: 6 (antibody, V domains shown, WapR-001 VH; WapR-001 VL) VH: EVQLLESGGGLVQPGGSLRLSCSASGFTFSRYPMHWVRQAPGKGLEYVSDIGTNGGSTNYADSVKGRFTISRDNSKNTVYLQMSSLRAEDTAVYHCVAGIAAAYGFDVWGQGTMVTVSS VL: QAGLTQPASVSGSPGQSITISCTGTSSDIATYNYVSWYQQHPGKAPKLMIYEGTKRPSGVSNRFSGSKSGNTASLTISGLQAEDEADYYCSSYARSYTYVFGTGTELTVL",mAb reactivity after mild alkaline treatment of Psl,Psl,maintaining
same,Kd,[1],0.84 nM
same,Cell attachment max. inhibition,[2],30.0 µg/mL
same,OPK EC50,P. aeruginosa,0.310 µg/mL
"WapR-003: anti-Psl monoclonal antibody, class II epitope; VH SEQ ID NO: 9, VL SEQ ID NO: 10 (antibody, V domains shown, WapR-003 VH; WapR-003 VL) VH: QMQLVQSGGGLVQPGGSLRLSCSASGFTFSSYPMHWVRQAPGKGLDYVSDISPNGGATNYADSVKGRFTISRDNSKNTVYLQMSSLRAEDTAVYYCVMGLVPYGFDNWGQGTMVTVSS VL: QTVVTQPASVSASPGQSITISCAGTSGDVGNYNFVSWYQQHPGKAPKLLIYEGSQRPSGVSNRFSGSRSGNTASLTISGLQAEDEADYYCSSYARSYTYVFGTGTKLTVL",Kd,[1],12.2 nM
same,Cell attachment max. inhibition,[2],30.0 µg/mL
same,OPK EC50,P. aeruginosa,0.278 µg/mL
"WapR-002: anti-Psl monoclonal antibody, class II epitope; VH SEQ ID NO: 7, VL SEQ ID NO: 8 (antibody, V domains shown, WapR-002 VH; WapR-002 VL) VH: QVQLVQSGGGLVQPGGSLRLSCSASGFTFSSYPMHWVRQAPGKGLDYVSDISPNGGSTNYADSVKGRFTISRDNSKNTLFLQMSSLRAEDTAVYYCVMGLVPYGFDIWGQGTLVTVSS VL: QTVVTQPASVSGSPGQSITISCTGTSSDVGGYNYVSWYQQHPGKAPKLMIYEVSNRPSGVSNHFSGSKSGNTASLTISGLQAEDEADYYCSSYTTSSTYVFGTGTKVTVL",Kd,[1],12.6 nM
same,Cell attachment max. inhibition,[2],30.0 µg/mL
same,OPK EC50,P. aeruginosa,0.396 µg/mL
